Assay results published in patent US20130022605A1.

Molecular target: hen egg lysozyme (hen) (UniProt P00698)
Assay: ELISA on HEL at 3 mg/ml, detection with 9e10 and anti mouse IgG-HRP

Chain of hen egg lysozyme (hen) (P00698 19-147): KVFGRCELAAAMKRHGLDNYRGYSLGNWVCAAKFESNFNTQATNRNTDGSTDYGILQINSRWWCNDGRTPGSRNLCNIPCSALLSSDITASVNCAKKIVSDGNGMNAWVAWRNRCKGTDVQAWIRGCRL

B1: VH Cκ chain expressed alone (TAR2-5 Cκ) (protein, not shown: small tags and cut ends)
chain: EVQLLESGGGLVQPGGSLRLSCAASGFTFDLYNMFWVRQAPGKGLEWVSFISQTGRLTWYADSVKGRFTISRDNSKNTLYLQMNSLRAEDTAVYYCAKTLEDFDYWGQGTLVTVSS
For B1, the ELISA signal (background) was 0.069.
